For this test, the target named is T1, His-BIK1 (Arabidopsis thaliana, UniProt O48814 1-395).
T1 construct: BIK1, Arabidopsis; CDS cloned into pET28a, 6xHis fusion; source: E. coli BL21 (DE3) Rosetta pLysS, purified (HisPur cobalt resin); not shown: His6, N-terminal, kept
T1 sequence (looked up): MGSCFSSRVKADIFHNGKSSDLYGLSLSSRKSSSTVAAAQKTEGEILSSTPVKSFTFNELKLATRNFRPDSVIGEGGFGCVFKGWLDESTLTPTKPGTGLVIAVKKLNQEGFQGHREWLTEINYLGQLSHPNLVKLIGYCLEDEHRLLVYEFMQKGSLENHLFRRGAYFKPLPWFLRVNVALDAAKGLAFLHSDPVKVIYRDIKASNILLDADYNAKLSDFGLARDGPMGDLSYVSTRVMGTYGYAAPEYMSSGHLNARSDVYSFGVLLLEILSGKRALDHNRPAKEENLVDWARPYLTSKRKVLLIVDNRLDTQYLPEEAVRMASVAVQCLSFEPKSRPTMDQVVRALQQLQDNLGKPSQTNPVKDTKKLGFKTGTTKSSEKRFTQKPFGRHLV
As to the kind of experiment: pull-down; MBP pulldown of His-BIK1 by His-MBP fusion proteins; 25 mM Tris-HCl pH 7.4, 100 mM NaCl, 0.2 % Triton X-100, 1 mM DTT, 4 °C, 1-2 h. Particulars: both partners purified.

B1: His-MBP-GRF2 (natural protein, Arabidopsis thaliana, UniProt Q01525 1-259, looked up)
chain: MASGREEFVYMAKLAEQAERYEEMVEFMEKVSAAVDGDELTVEERNLLSVAYKNVIGARRASWRIISSIEQKEESRGNDDHVTAIREYRSKIETELSGICDGILKLLDSRLIPAAASGDSKVFYLKMKGDYHRYLAEFKTGQERKDAAEHTLAAYKSAQDIANAELAPTHPIRLGLALNFSVFYYEILNSPDRACNLAKQAFDEAIAELDTLGEESYKDSTLIMQLLRDNLTLWTSDMQDDAADEIKEAAAPKPTEEQQ
notes: GRF2, Arabidopsis; CDS cloned into pOPINM, 6xHis-MBP fusion; source: E. coli BL21 (DE3) Rosetta pLysS, purified (HisPur cobalt resin); not shown: His6, N-terminal, kept; MBP, N-terminal, kept
Turning to B1, the binding result is recorded as “binds”.

For the origin of these results see article doi:10.1101/2025.08.16.670655, “A Phosphorelay Circuit Drives Extracellular Alkalinization in Plant Receptor Kinase Signaling” (bioRxiv, 2025).
